Results as given in the Human Domainome abundance scans (Beltran et al. 2025).
± gives the uncertainty stated by the source.

B1: Homeobox expressed in ES cells 1, residues 110 to 165; numbered along this chain, Q9UBX0 (parent)
chain: RPRTAFTQNQIEVLENVFRVNCYPGIDIREDLAQKLNLEEDRIQIWFQNRRAKLKR

Variants of: B1
Test: abundance fitness (aPCA) (normalised: wild type 0, dead -1); higher = more abundant; growth selection in yeast, the domain comes from the species named
Details: Homo sapiens
Work on L14W yielded an abundance fitness of -0.625 ± 0.37. With L14M the abundance fitness was -0.267 ± 0.2. In the case of L14T, the abundance fitness is reported as -0.463 ± 0.47. Work on L14A yielded an abundance fitness of -1.02 ± 0.26. L14E gave an abundance fitness of -0.87 ± 0.45. Variant L14R has an abundance fitness of -0.77 ± 0.18. In the case of L14I, the abundance fitness is reported as -0.298 ± 0.47. In the case of L14N, the abundance fitness is reported as -0.506 ± 0.49. With L14G the abundance fitness was -0.88 ± 0.11. Variant L14K has an abundance fitness of -0.519 ± 0.24. Variant V13A has an abundance fitness of -0.272 ± 0.23. For V13Y, the abundance fitness was -0.757 ± 0.47. Variant V13Q has an abundance fitness of -0.184 ± 0.12. With V13T the abundance fitness was -0.141 ± 0.18. V13N showed an abundance fitness of -0.278 ± 0.29. V13P showed an abundance fitness of -0.596 ± 0.14. V13K gave an abundance fitness of -0.458 ± 0.22. Work on V13H yielded an abundance fitness of 0.023 ± 0.3. With V13L the abundance fitness was -0.543 ± 0.2. For V13S, the abundance fitness was -0.224 ± 0.12. In the case of V13M, the abundance fitness is reported as 0.618 ± 0.2. V13F gave an abundance fitness of -0.378 ± 0.28. Variant V13D has an abundance fitness of -0.757 ± 0.42. For V13I, the abundance fitness was 0.467 ± 0.18. For V13C, the abundance fitness was -0.149 ± 0.24. In the case of R19F, the abundance fitness is reported as -0.467 ± 0.12. Variant R19H has an abundance fitness of -0.46 ± 0.27. For R19Y, the abundance fitness was -0.614 ± 0.38. R19Q gave an abundance fitness of -0.187 ± 0.22. Work on R19I yielded an abundance fitness of -0.327 ± 0.26. R19T gave an abundance fitness of -0.01 ± 0.12. For R19G, the abundance fitness was -0.452 ± 0.071. Work on R19W yielded an abundance fitness of -0.64 ± 0.18. R19C gave an abundance fitness of -0.354 ± 0.1. R19K gave an abundance fitness of -0.105 ± 0.18. Variant R19E has an abundance fitness of -0.291 ± 0.089. R19S showed an abundance fitness of -0.334 ± 0.11. Work on R19V yielded an abundance fitness of -0.142 ± 0.12. For R19M, the abundance fitness was -0.529 ± 0.22. E12P gave an abundance fitness of -1.07 ± 0.36. E12D showed an abundance fitness of 0.28 ± 0.14. E12G gave an abundance fitness of -0.525 ± 0.18. E12Q gave an abundance fitness of 0.154 ± 0.21. Variant E12W has an abundance fitness of -0.704 ± 0.31. Work on E12F yielded an abundance fitness of 0.203 ± 0.18. In the case of E12S, the abundance fitness is reported as 0.016 ± 0.14. E12T showed an abundance fitness of -0.009 ± 0.15. With E12Y the abundance fitness was -0.264 ± 0.37. For E12V, the abundance fitness was -0.137 ± 0.095. E12L showed an abundance fitness of -0.236 ± 0.17. E12I showed an abundance fitness of -0.612 ± 0.35. In the case of E12N, the abundance fitness is reported as -0.148 ± 0.31. Variant E12K has an abundance fitness of 0.487 ± 0.17. With E12R the abundance fitness was -0.346 ± 0.12. Variant N21R has an abundance fitness of -0.948 ± 0.19. Work on N21Y yielded an abundance fitness of -0.592 ± 0.22. Variant N21G has an abundance fitness of -0.262 ± 0.21. N21F showed an abundance fitness of -0.868 ± 0.41. With N21A the abundance fitness was -1.03 ± 0.32. For N21I, the abundance fitness was -0.522 ± 0.38. In the case of N21D, the abundance fitness is reported as -0.412 ± 0.31. N21S showed an abundance fitness of -0.454 ± 0.14. Variant N21Q has an abundance fitness of -0.158 ± 0.31. For N21C, the abundance fitness was -0.69 ± 0.18. N21V gave an abundance fitness of -0.578 ± 0.12. N21L gave an abundance fitness of -0.807 ± 0.36. Work on N21M yielded an abundance fitness of -0.058 ± 0.18. N21W showed an abundance fitness of -0.608 ± 0.46. With V20C the abundance fitness was -0.218 ± 0.14. Work on V20W yielded an abundance fitness of -0.436 ± 0.39. With V20H the abundance fitness was -0.021 ± 0.18. Variant V20L has an abundance fitness of -0.186 ± 0.094. V20M gave an abundance fitness of -0.091 ± 0.29. Variant V20K has an abundance fitness of 0.106 ± 0.24. V20G gave an abundance fitness of -0.157 ± 0.089. Variant V20F has an abundance fitness of 0.333 ± 0.13. In the case of V20Y, the abundance fitness is reported as -0.667 ± 0.41. V20E gave an abundance fitness of -0.1 ± 0.17. With V20S the abundance fitness was 0.072 ± 0.062. V20R gave an abundance fitness of -0.118 ± 0.11. With V20N the abundance fitness was 0.208 ± 0.081. Work on V20A yielded an abundance fitness of -0.052 ± 0.17. With V20T the abundance fitness was -0.03 ± 0.072. For V20D, the abundance fitness was 0.136 ± 0.084. V20I gave an abundance fitness of 0.077 ± 0.096. E15T gave an abundance fitness of -0.741 ± 0.34. E15D gave an abundance fitness of -0.621 ± 0.39. In the case of E15H, the abundance fitness is reported as -0.463 ± 0.15. Variant E15V has an abundance fitness of -0.81 ± 0.16. For E15M, the abundance fitness was -0.196 ± 0.12. In the case of E15C, the abundance fitness is reported as -0.567 ± 0.26. With E15L the abundance fitness was -0.725 ± 0.088. E15Y gave an abundance fitness of -0.528 ± 0.16. For E15G, the abundance fitness was -0.686 ± 0.093. With E15S the abundance fitness was -0.854 ± 0.14. E15P showed an abundance fitness of -0.499 ± 0.34. Variant E15R has an abundance fitness of -0.503 ± 0.12. Work on E15A yielded an abundance fitness of -0.832 ± 0.4. With N16R the abundance fitness was -0.417 ± 0.19. With N16D the abundance fitness was -0.073 ± 0.12. In the case of N16S, the abundance fitness is reported as -0.02 ± 0.13. N16P gave an abundance fitness of -1 ± 0.25. N16K showed an abundance fitness of -0.034 ± 0.19. N16Q gave an abundance fitness of -0.073 ± 0.15. With N16V the abundance fitness was -0.701 ± 0.16. In the case of N16M, the abundance fitness is reported as -0.215 ± 0.19. N16T showed an abundance fitness of -0.125 ± 0.16. In the case of N16W, the abundance fitness is reported as -0.755 ± 0.27. N16Y showed an abundance fitness of -0.56 ± 0.3. Variant N16L has an abundance fitness of -0.561 ± 0.12. Variant N16E has an abundance fitness of -0.114 ± 0.073. N16F showed an abundance fitness of -0.962 ± 0.39. Variant N16C has an abundance fitness of -0.365 ± 0.15. V17A showed an abundance fitness of -0.06 ± 0.18. In the case of V17P, the abundance fitness is reported as -0.743 ± 0.16. For V17F, the abundance fitness was -0.562 ± 0.33. Variant V17Q has an abundance fitness of -0.359 ± 0.31. V17H gave an abundance fitness of -0.427 ± 0.2. Variant V17K has an abundance fitness of -0.552 ± 0.35. V17Y showed an abundance fitness of -0.293 ± 0.21. For V17R, the abundance fitness was -0.84 ± 0.18. With V17S the abundance fitness was -0.335 ± 0.079. For V17L, the abundance fitness was -0.308 ± 0.092. V17T showed an abundance fitness of -0.151 ± 0.091. In the case of V17E, the abundance fitness is reported as -0.372 ± 0.23. V17W gave an abundance fitness of -0.923 ± 0.27. In the case of V17M, the abundance fitness is reported as -0.197 ± 0.2. In the case of V17I, the abundance fitness is reported as -0.091 ± 0.19. For F18R, the abundance fitness was -0.71 ± 0.089. F18L showed an abundance fitness of -0.459 ± 0.2. F18Q showed an abundance fitness of -0.891 ± 0.38. F18T showed an abundance fitness of -0.82 ± 0.24. With F18I the abundance fitness was -0.328 ± 0.15. For F18Y, the abundance fitness was -0.083 ± 0.14. In the case of F18C, the abundance fitness is reported as -0.625 ± 0.47. With F18K the abundance fitness was -0.845 ± 0.13. For F18M, the abundance fitness was -1.06 ± 0.36. In the case of F18D, the abundance fitness is reported as -0.701 ± 0.28. In the case of F18S, the abundance fitness is reported as -0.819 ± 0.14. F18G gave an abundance fitness of -0.812 ± 0.14. C22Q showed an abundance fitness of 0.156 ± 0.096. C22I gave an abundance fitness of 0.076 ± 0.11. Variant C22A has an abundance fitness of -0.061 ± 0.13. In the case of C22R, the abundance fitness is reported as 0.054 ± 0.064. Work on C22E yielded an abundance fitness of 0.227 ± 0.18. For C22K, the abundance fitness was -0.328 ± 0.25. Variant C22G has an abundance fitness of -0.182 ± 0.12. C22V gave an abundance fitness of -0.392 ± 0.15. With C22P the abundance fitness was 0.079 ± 0.13. Variant C22S has an abundance fitness of 0.187 ± 0.11. In the case of C22T, the abundance fitness is reported as -0.013 ± 0.17. Variant C22F has an abundance fitness of -0.467 ± 0.1. In the case of C22D, the abundance fitness is reported as -0.021 ± 0.21. With C22L the abundance fitness was -0.134 ± 0.16. C22W showed an abundance fitness of -0.066 ± 0.21. With C22Y the abundance fitness was 0.009 ± 0.1. C22M gave an abundance fitness of 0.425 ± 0.15. Work on Y23K yielded an abundance fitness of -0.262 ± 0.11. Y23R gave an abundance fitness of -0.381 ± 0.12. Y23M gave an abundance fitness of -0.44 ± 0.27. In the case of Y23N, the abundance fitness is reported as 0.114 ± 0.15. Y23L showed an abundance fitness of -0.338 ± 0.13. With Y23F the abundance fitness was -0.411 ± 0.3. Y23D gave an abundance fitness of -0.23 ± 0.25. Work on Y23Q yielded an abundance fitness of -0.251 ± 0.31. Y23A gave an abundance fitness of 0.05 ± 0.074. For Y23C, the abundance fitness was 0.05 ± 0.076.
